Test results taken from patent US20190134169A1.

Molecular target: mouse Notch1 on CD4+ T cells (mouse) (UniProt Q01705)
Assay: cell-based or functional assay

Sequence of UniProt Q01705 (Q01705 19-2531): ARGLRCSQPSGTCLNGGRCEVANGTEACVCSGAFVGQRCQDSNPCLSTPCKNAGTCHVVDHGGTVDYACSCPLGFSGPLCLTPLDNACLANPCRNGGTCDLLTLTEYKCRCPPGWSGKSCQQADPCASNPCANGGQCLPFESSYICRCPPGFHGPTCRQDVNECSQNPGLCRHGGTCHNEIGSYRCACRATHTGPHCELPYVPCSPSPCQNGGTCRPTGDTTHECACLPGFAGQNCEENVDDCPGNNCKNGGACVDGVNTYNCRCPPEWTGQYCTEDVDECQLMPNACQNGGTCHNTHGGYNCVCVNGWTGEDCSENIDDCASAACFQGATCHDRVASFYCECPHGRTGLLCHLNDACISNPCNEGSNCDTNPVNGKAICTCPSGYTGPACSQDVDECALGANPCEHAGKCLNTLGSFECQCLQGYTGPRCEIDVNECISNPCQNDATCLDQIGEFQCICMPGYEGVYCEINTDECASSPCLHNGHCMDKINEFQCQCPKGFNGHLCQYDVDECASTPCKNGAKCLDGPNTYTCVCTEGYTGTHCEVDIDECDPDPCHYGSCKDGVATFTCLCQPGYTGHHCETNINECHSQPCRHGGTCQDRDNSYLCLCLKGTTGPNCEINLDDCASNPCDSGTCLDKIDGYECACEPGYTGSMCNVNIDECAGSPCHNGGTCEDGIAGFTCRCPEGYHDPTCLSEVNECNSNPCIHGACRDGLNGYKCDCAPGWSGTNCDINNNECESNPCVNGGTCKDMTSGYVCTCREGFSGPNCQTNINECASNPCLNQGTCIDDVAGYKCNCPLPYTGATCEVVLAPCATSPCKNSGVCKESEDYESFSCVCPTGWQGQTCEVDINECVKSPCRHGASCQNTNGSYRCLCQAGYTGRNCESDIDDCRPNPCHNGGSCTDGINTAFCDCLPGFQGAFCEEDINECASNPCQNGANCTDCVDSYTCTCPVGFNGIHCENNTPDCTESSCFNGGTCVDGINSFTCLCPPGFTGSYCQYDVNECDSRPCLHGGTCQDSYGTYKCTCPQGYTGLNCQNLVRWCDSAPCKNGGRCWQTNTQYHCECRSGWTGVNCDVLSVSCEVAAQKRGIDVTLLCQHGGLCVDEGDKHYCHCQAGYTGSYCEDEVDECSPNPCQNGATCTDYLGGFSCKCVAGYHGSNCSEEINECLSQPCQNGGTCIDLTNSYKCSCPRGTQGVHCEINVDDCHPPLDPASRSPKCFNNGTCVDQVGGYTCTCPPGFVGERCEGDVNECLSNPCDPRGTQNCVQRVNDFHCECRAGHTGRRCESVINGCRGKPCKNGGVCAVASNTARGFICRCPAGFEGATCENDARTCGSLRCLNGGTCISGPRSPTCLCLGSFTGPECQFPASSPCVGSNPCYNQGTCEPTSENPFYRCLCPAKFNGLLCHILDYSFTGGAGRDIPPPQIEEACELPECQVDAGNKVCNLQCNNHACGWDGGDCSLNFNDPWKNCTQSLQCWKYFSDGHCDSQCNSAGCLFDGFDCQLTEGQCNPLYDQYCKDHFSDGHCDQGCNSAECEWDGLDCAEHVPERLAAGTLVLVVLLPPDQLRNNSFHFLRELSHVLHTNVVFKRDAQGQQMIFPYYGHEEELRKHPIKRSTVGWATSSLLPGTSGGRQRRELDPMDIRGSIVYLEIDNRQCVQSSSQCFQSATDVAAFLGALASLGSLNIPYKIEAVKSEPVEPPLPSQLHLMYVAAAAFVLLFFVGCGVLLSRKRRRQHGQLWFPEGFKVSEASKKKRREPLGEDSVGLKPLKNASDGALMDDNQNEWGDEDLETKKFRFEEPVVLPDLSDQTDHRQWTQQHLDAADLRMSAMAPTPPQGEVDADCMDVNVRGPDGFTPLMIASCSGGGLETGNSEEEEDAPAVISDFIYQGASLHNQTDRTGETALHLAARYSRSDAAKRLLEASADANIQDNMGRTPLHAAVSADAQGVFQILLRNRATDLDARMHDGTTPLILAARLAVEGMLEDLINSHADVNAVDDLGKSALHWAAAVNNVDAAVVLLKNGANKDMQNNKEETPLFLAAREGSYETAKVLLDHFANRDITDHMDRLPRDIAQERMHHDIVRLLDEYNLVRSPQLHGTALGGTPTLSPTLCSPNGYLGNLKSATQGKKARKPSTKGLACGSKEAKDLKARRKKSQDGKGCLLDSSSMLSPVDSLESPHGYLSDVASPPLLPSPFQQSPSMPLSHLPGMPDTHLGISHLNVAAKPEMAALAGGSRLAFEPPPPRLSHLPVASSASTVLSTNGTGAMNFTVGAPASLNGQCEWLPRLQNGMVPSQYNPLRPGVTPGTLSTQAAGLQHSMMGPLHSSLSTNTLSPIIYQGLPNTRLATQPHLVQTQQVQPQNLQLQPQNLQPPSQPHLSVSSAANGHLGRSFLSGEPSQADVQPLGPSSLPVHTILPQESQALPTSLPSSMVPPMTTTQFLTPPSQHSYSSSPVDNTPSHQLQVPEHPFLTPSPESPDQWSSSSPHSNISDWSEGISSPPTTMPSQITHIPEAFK

mouse delta-like ligand 4 (DLL4) on the surface of DLL4hiDCs (from UniProt Q9JI71 27-686)
percentage of DLL4hiDC-activated CD4+ T cells with high cleaved intracellular Notch (ICN): 61%
